Experimental findings from the Immune Epitope Database (IEDB) are described below.

pIC50, pKd: −log10 of the molar value.

Assay [1] concerns the target HLA-B*15:01. Kind of assay: IEDB peptide-MHC binding, purified MHC/competitive/fluorescence; filed as Kd, often an IC50 or EC50 that approximates it; ≥ and ≤ were set here for values at or beyond the usual limits of such assays. The conditions noted are these: source organism: Zaire ebolavirus.
A further assay addresses HLA-B*39:01. Described as above.
The target in the next assay is HLA-B*27:03. Described as above.
The next assay concerns the target HLA-B*18:01. The assay is described as above.
Another assay deals with HLA-B*46:01. The assay is described as above.
The next assay deals with HLA-B*57:01. The assay is described as above.
In another assay the target is HLA-B*15:17. The assay is described as above. The conditions noted are these: source organism: Zaire ebolavirus.
A further assay deals with HLA-A*26:01. Described as above.
The target of a further assay is HLA-B*51:01. Described as above.
Assay [2] addresses HLA-A*02:01. Described as above.
Assay [3] deals with HLA-A*03:01. Briefly: IEDB peptide-MHC binding, purified MHC/direct/fluorescence; filed as Kd, often an IC50 or EC50 that approximates it; ≥ and ≤ were set here for values at or beyond the usual limits of such assays.
The target of a further assay is HLA-A*24:03. The assay is described as above.
The next assay deals with HLA-A*02:11. The assay is described as above.
Another assay concerns the target HLA-A*02:12. The description is as above.
For another assay, the target named is HLA-A*68:02. Described as above.
The target in a further assay is HLA-A*01:01. The description is as above.
The target in a further assay is HLA-A*02:19. The description is as above.
For the next assay, the target named is HLA-A*23:01. The description is as above.
The next assay deals with HLA-A*29:02. The assay is described as above.
A further assay addresses HLA-A*02:03. Described as above.
In a further assay the target is HLA-A*69:01. Briefly: IEDB peptide-MHC binding, purified MHC/competitive/fluorescence; filed as Kd, often an IC50 or EC50 that approximates it; ≥ and ≤ were set here for values at or beyond the usual limits of such assays.
In another assay the target is HLA-A*02:16. Briefly: IEDB peptide-MHC binding, purified MHC/direct/fluorescence; filed as Kd, often an IC50 or EC50 that approximates it; ≥ and ≤ were set here for values at or beyond the usual limits of such assays.
In another assay the target is HLA-A*11:01. Briefly: IEDB peptide-MHC binding, purified MHC/competitive/fluorescence; ≥ and ≤ were set here for values at or beyond the usual limits of such assays. The settings on record: source organism: Vaccinia virus Copenhagen.
The target in assay [4] is HLA-A*03:01. Described as above. The settings on record: source organism: Vaccinia virus Copenhagen.
A further assay deals with HLA-B*07:02. Described as above.
For a further assay, the target named is HLA-A*24:02. Described as above.
For the next assay, the target named is HLA-A*31:01. Briefly: IEDB peptide-MHC binding, purified MHC/competitive/fluorescence; filed as Kd, often an IC50 or EC50 that approximates it; ≥ and ≤ were set here for values at or beyond the usual limits of such assays. The settings on record: source organism: Zaire ebolavirus.
For a further assay, the target named is HLA-A*30:01. Briefly: IEDB peptide-MHC binding, purified MHC/direct/fluorescence; filed as Kd, often an IC50 or EC50 that approximates it; ≥ and ≤ were set here for values at or beyond the usual limits of such assays. The settings on record: source organism: Vibrio cholerae V52.
Assay [5] concerns the target HLA-B*15:01. Kind of assay: IEDB peptide-MHC binding, purified MHC/competitive/fluorescence; ≥ and ≤ were set here for values at or beyond the usual limits of such assays. The settings on record: source organism: Sudan ebolavirus.
Assay [6] addresses HLA-A*02:01. The description is as above. The settings on record: source organism: Sudan ebolavirus.
The mark [7] stands for this setting: source organism: Zaire ebolavirus.
[8] abbreviates: source organism: Orthohantavirus sinnombreense.
[9] abbreviates: source organism: Vaccinia virus Copenhagen.
The mark [10] stands for this setting: source organism: Ravn virus - Ravn, Kenya, 1987.
Where [11] appears, read: source organism: Entamoeba histolytica HM-1:IMSS.
Where [12] appears, read: source organism: Sudan ebolavirus.

For QTEPKTSVV, the pKd with HLA-B*15:01 [1], with HLA-B*39:01 (setting [7]), with HLA-B*27:03 (setting [7]), with HLA-B*18:01 (setting [7]), with HLA-B*46:01 (setting [7]) and with HLA-B*57:01 (setting [7]) was at most 4.70 in each case. Also, the pKd with HLA-B*15:17, with HLA-A*26:01 (setting [7]), with HLA-B*51:01 (setting [7]), with HLA-A*02:01 [2] (setting [7]), with HLA-A*03:01 [3] (setting [7]) and in the assay with HLA-A*24:03 (setting [7]) was at most 4.70 throughout. For the same sequence, the pKd in the assay with HLA-A*02:11 (setting [7]) is at most 4.70; with HLA-A*02:12 (setting [7]), at most 4.70; in the assay with HLA-A*68:02 (setting [7]), at most 4.70; with HLA-A*01:01 (source organism: Ebola virus - Eckron (Zaire, 1976)), 4.79; in the assay with HLA-A*02:19 (setting [7]), at most 4.70; with HLA-A*23:01 (setting [7]), at most 4.70. Moreover, the pKd with HLA-A*29:02 (setting [7]) and in the assay with HLA-A*02:03 (setting [7]) was at most 4.70 in each case.

On to HTVGLGQGY, for which the pKd with HLA-B*39:01 (setting [8]) was at most 4.70; in the assay with HLA-B*27:03 (setting [8]), at most 4.70; in the assay with HLA-B*18:01 (setting [8]), at most 4.70; in the assay with HLA-B*46:01 (setting [8]), at most 4.70; with HLA-B*57:01 (setting [8]) it was at most 4.70; with HLA-A*26:01 (setting [8]) it was 8.68. Further, the pKd with HLA-B*51:01 (setting [8]), with HLA-A*69:01 (setting [8]), with HLA-A*02:01 [2] (setting [8]), with HLA-A*03:01 [3] (source organism: Choclo virus), with HLA-A*24:03 (source organism: Choclo virus) and in the assay with HLA-A*02:11 (source organism: Choclo virus) was at most 4.70 throughout. Besides, the negative-log Kd (pKd) is at most 4.70 in the assay with HLA-A*02:12 (source organism: Choclo virus); at most 4.70 in the assay with HLA-A*02:16 (source organism: Choclo virus); at most 5.30 with HLA-A*01:01 (source organism: Orthohantavirus andesense); at most 4.70 with HLA-A*02:19 (source organism: Choclo virus); at most 4.70 in the assay with HLA-A*23:01 (source organism: Choclo virus); at most 4.70 with HLA-A*02:03 (source organism: Choclo virus).

In the case of KITFALKKL, the pIC50 with HLA-A*11:01 was 4.71; in the assay with HLA-A*03:01 [4] it was 4.95; with HLA-B*07:02 (setting [9]), 4.21; with HLA-A*24:02 (setting [9]), 4.46.

For HSGFIYFGK, the negative-log Kd (pKd) with HLA-B*15:01 [1] is at most 4.70; in the assay with HLA-B*39:01 (setting [7]) it was at most 4.70; with HLA-B*27:03 (setting [7]), at most 4.70; with HLA-B*18:01 (setting [7]) it was at most 4.70; with HLA-A*31:01, 6.10; in the assay with HLA-B*46:01 (setting [7]), at most 4.70. In addition, the pKd with HLA-B*57:01 (setting [7]), in the assay with HLA-B*15:17, with HLA-A*26:01 (setting [7]), with HLA-B*51:01 (setting [7]), in the assay with HLA-A*69:01 (setting [7]) and with HLA-A*02:01 [2] (setting [7]) was at most 4.70 throughout. Moreover, the negative-log Kd (pKd) in the assay with HLA-A*03:01 [3] (source organism: Sudan ebolavirus - Uganda (2000)) is 5.46; with HLA-A*24:03 (setting [10]), at most 4.70; in the assay with HLA-A*02:11 (setting [10]), at most 4.70; with HLA-A*02:12 (setting [10]), at most 4.70; with HLA-A*02:16 (setting [10]), at most 4.70; with HLA-A*68:02 (setting [10]), at most 4.70. Besides, the pKd with HLA-A*02:19 (setting [10]), with HLA-A*23:01 (setting [10]), in the assay with HLA-A*29:02 (setting [10]) and with HLA-A*02:03 (setting [10]) was at most 4.70 in each case.

In the case of WSHRVTSPK, the pKd was 7.30 with HLA-A*30:01 and at most 4.70 with HLA-A*01:01 (source organism: Vibrio cholerae).

As to QYIHLLCNK, the results for the negative logarithm of the Kd (pKd) with HLA-A*24:03 (setting [11]) and with HLA-A*23:01 (setting [11]) were 5.96 and 6.70, respectively.

QLKSVGLNL: the pIC50 with HLA-B*15:01 [5] is 4.84; with HLA-B*07:02 (setting [12]), 5.19; with HLA-A*24:02 (setting [12]) it was 4.61; in the assay with HLA-A*02:01 [6], 5.12.
